Assay results from publication PMC12366243, “Genomic context analysis enables the discovery of an unusual NAD‐dependent racemase in phosphonate catabolism” (The Febs Journal, 2025).

Experiments:
[1] = biological target: 2-amino-1-hydroxyethylphosphonate racemase (PbfF) from Mesorhizobium plurifarium (Mesorhizobium plurifarium); experiment: SEC; analytical SEC, data not shown; 50 uL of 108 uM PbfF (monomer concentration) on Superdex 200 Increase 5/150 GL; 50 mM Tris, 200 mM NaCl, pH 7.9; 0.3 mL/min; calibrated with proteins of known molecular mass
[2] = biological target: T1, PbfF (2-amino-1-hydroxyethylphosphonate racemase; HAEP racemase) (Mesorhizobium plurifarium, UniProt A0A090EUR6); experiment: continuous coupled assay (PbfA, PhnX, NADP-dependent ADH), NADPH decrease at […] nm; type: biochemical
T1 construct: full-length, codon-optimized synthetic gene in pET24-C-His-tag (NdeI/NotI), C-terminal His tag kept; E. coli Tuner (DE3)
T1 sequence (A0A090EUR6 1-336): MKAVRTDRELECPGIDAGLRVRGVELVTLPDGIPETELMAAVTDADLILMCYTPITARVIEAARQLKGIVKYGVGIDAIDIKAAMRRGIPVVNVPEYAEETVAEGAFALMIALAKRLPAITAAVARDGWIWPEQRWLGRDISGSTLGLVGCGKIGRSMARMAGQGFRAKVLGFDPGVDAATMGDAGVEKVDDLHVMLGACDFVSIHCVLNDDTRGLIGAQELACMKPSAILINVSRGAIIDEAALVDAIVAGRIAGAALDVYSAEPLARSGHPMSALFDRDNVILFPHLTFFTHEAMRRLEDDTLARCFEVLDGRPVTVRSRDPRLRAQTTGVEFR

NC[C@@H](O)P(=O)(O)O = system: T2, NC[C@@H](O)P(=O)(O)O; experiment: purified protein; type: biochemical, Mesorhizobium plurifarium; conditions: 1 mM NAD+, 5 mM MgCl2, 50 mM TEA-HCl pH 8.0, 25 °C, S-HAEP to R-HAEP
T2 construct: full-length, codon-optimized synthetic gene in pET24-C-His-tag (NdeI/NotI), C-terminal His tag kept; E. coli Tuner (DE3)

[3] = system: T3, NC(=O)c1ccc[n+]([C@@H]2O[C@H](COP(=O)(O)OP(=O)(O)OC[C@H]3O[C@@H](n4cnc5c(N)ncnc54)[C@H](O)[C@@H]3O)[C@@H](O)[C@H]2O)c1; experiment: purified protein; type: biochemical, Mesorhizobium plurifarium; conditions: 1 mM S-HAEP, 5 mM MgCl2, 50 mM TEA-HCl pH 8.0, 25 °C, exogenous NAD+, varied: cofactor
T3 construct: full-length, codon-optimized synthetic gene in pET24-C-His-tag (NdeI/NotI), C-terminal His tag kept; E. coli Tuner (DE3)

Compound: 2-amino-1-hydroxyethylphosphonate racemase (PbfF) from Mesorhizobium plurifarium (enzyme)
- stoichiometry N [1]: 2

Compound: NC(=O)C1=CN([C@@H]2O[C@H](COP(=O)(O)OP(=O)(O)OC[C@H]3O[C@@H](n4cnc5c(N)ncnc54)[C@H](O)[C@@H]3O)[C@@H](O)[C@H]2O)C=CC1 [NADH]
- inhibition at 60 µM [2]: ~50%

Compound: PbfF (2-amino-1-hydroxyethylphosphonate racemase; HAEP racemase) (Mesorhizobium plurifarium)
- Km (NC[C@@H](O)P(=O)(O)O): 530 µM
- kcat (NC[C@@H](O)P(=O)(O)O): 6.6 s⁻¹
- K0.5 [3]: 200 µM
